Measurements from US11879149B2, “Quantification method of ethanolamine phosphate, oxidoreductase for quantification, composition for quantification, kit for quantification and sensor for quantification” (KIKKOMAN CORPORATION, priority 2018, dated 2024).

Assays:
Assay type in all cases: biochemical
[1] = Oxidase activity measurement of LcAOX, LrHP, SrAOX3925, SrAOX3926, SrEAOX (4-AA/TOOS/POD, A555); settings: pH 7.5; for oxidase activity of the crude enzymatic solution against EAP: crude enzyme solution, 50 mM EAP final; for oxidase activity of the crude enzymatic solution against EAP / oxidase activity against EAP after being purified: 37° C.; for oxidase activity against EAP after being purified: purified preparation
Description: Oxidase activity was measured for LcAOX, LrHP, SrAOX3925, SrAOX3926, SrEAOX expressed by the methods described above. After incubating 580 μl of a reagent consisting of the composition of Table 12 at 37° C. for 5 minutes, 20 μl of a substrate solution (1500 mM EAP) was added and mixed, and the amount of change at A555 (ΔAS) per 1 minute at 37° C. was measured using the spectrophotometer (U-3900, manufactured by Hitachi High-Tech Science Corporation). Subsequently, 20 μl of ion-exchanged water was added instead of the substrate solution and mixed, and the amount of change at A555 (ΔA0) per 1 minute at 37° C. was measured.
The oxidase activity was calculated based on the following formula: Oxidase activity (U/ml)=(ΔAS−ΔA0)×600.0×df/(39.2×0.5×x)=30.6×(ΔAS−ΔA0)×df/x • 39.2: Millimolar extinction coefficient (mM^−1cm^−1) of 4-AA-TOOS Condensation dye for 555 nm-wavelength light • df: Dilution rate of enzyme solution (Quantification of EAP by LrHP)

[2] = Quantification of EAP by LrHP by electrochemical methods (chronoamperometry); settings: +600 mV (Ag/AgCl); 0 μM to 1400 μM and 0 μM to 170 μM EAP; FIG. 6, FIG. 7
Description: 20 μl of 150 mM Bicine-NaOH buffer solution (pH 7.5), 15 μl of 1.5 M potassium chloride solution, and 5 μl of LrHP solution (0.14 U/ml) were applied and mixed on a SCREEN-PRINTED ELECTRODES (manufactured by DropSens, Product Number DRP-C110). A dedicated connector (DRP-CAC) was then used to connect to ALS electrochemical analyzer 814D. Chronoamperometric measurements were performed at +600 mV (Ag/AgCl). Subsequently, 2 μl of EAP solution at each concentration was added, and the current value at 100 seconds after the initiation of measurement was recorded. Similar experiments were carried out using 5 μl of ultrapure water (ion-exchanged water) instead of LrHP solution as a control experiment.

[3] = Evaluation of substrate specificity of crude enzyme solution (PMS/DCIP, 96-well plate); settings: 5 mM substrate, potassium phosphate buffer pH 8.0, PMS
Description: An activity measurement using 2, 6-Dichlorophenolindophenol (DCIP) was performed in a 96-well plate. […] As the substrate, taurine (manufactured by Fujifilm Wako Pure Chemical Corporation), ethanolamine phosphate (EAP, manufactured by Fujifilm Wako Pure Chemical Corporation), ethanolamine (manufactured by Tokyo Chemical Industry, Co., Ltd.), and benzylamine (manufactured by Tokyo Chemical Industry Co., Ltd.) were used.

Molecule	oxidase activity of the crude enzymatic solution against EAP [1] [U/L]	oxidase activity against EAP after being purified [1] [U/ml]	also measured
SrEAOX: ethanolamine oxidase derived from Syncephalastrum racemosum, GenBank ID BAU20376.1, SEQ ID NO: 35 (protein, listed as Syncephalastrum racemosum) MTLPTTIHPLDPLSPEEIRHVSEIIRKQRAADETTYIFNSIALREPPKEQILAHFGWTDGPKPVQIDRQAFAVLIDRPSGLVHEIIVSITTASIVSWETKEGVQPTLHVQEMLEAEQVMLKDERVIEECRKLGIEDMSMVFADTWGVGWHKTKGKRLMQALMYMRTSPDDNQYAHPLDFTPLYDVNEQKVIDVLVAKRRNSKFERPVIPRADRQFLPEHLGEENLRKDIKPIEITQPQGVSFQIRGHEIDWQKWNLHVGFNYREGLVINNVSYKDMDGTVRPMFYRVSLAEMVVPYANPYEPYNHKMAFDVGEYGLGNLTNSLELGCDCVGSIFYMDGVCSDIKGDAWVIPNAICIHEEDTGLLFKHTDFRNNKAHSARSRRLVISHIVTAANYDYGLYYYFYQDGTFQYEVKATGELNTHVLAEDEDPAPYGTIVAPQVDAQHHQHLFSMRIDPMVDGPTNSVAQVDVVASDLPVGHPDNAVGNAFSPVTTIYADTDEARARANGETSRYWKIINETRIHPYTKEPVGFKLMCPNTPPMLPKPGSIAYERAVFASNTVWVTPYDAEQLFPGGFYCYQSDPADRLGLPEWTREKKDVKNKDIVLWLTFGLTHIPRVEDFPIMPVETCGFMLKPCNFFLANPGIDIPASDRHSSKSAYAPAVANGEYGITNGTTNGSSCCSKGH	16	–	–
LrHP: hypothetical protein derived from Lichtheimia ramosa, GenBank ID CDS02610.1, SEQ ID NO: 20 (protein, listed as Lichtheimia ramosa) MSSSPIKPYPLDPLTADEIRRAAALIRETRGQDTTYVFNSLTLKEPSKQQMMSYLGWTNSPSHPKPVTIDREVFAVLIDRPSGLVHEMTVNLDKNQVTRWNKVEGRQPTVNVFEMLEAEREILKDERVKEQCRQLGINDMSMVFADPWGVGYHEIKGKRLVQALMYARTSPDDNQYAHPLDFNPLYDVNAKKVIDIIVSKRRNSSFDRPVIPMANHHFLPEHLGQDRLRKDIKPIEITQPQGVSFSIRDGHQLHWQKWDMHLSFNYREGLVINNLSYRDMDGTVRPIIYRMSLSEMVVPYANPYKPYNHKMAFDVGEYGLGNLTNSLELGCDCVGKICYLDATLSDLNGDPWQIPNAICIHEEDTGLLFKHTDYRTGKAHSARSRRLVISHIVTAANYDYGLYYYFYQDGTIQYEVKATGELNTQVLAADEDAAPYGTIVAPQVDAQHHQHLFSMRIDPMVDGPNNSVAEVDVVASDLPVGHPHNSIGNSFYPVTKVFNTTDEAKTMASIERHRSWKIINENKIHPYAKQPVGFKMMAHPTPPLLPKPGSIVYERAMFASKTLWVTPYNEEQRYPGGFYCYQSEPSENLGLPQWTKETQNVRDTDIVCWLNFGITHIPRVEDFPIMPIETCGVMLKPVNFFLGNPGIDIPPSTRQSTKSAYATEATCCRKNNL	5.8	0.31	current value at 100 seconds after the initiation of measurement with increasing EAP [2]: current value also increased; oxidase activity of purified LrHP solution used in the quantification reagent ([1]; final concentration of 50 mM EAP): 0.14 U/ml (*purified LrHP solutions)
LcAOX: amine oxidase derived from Lichtheimia corymbifera, GenBank ID CDH56199.1, SEQ ID NO: 15 (protein, listed as Lichtheimia corymbifera) MSSSSSATPKPHPLDPLSADEIRRAAAIIREKRGQDTSYVFNSLTLKEPAKQQMMLYLGWVNSSSQPKPVTIDREVFAVLIDRPSGLVHEMTVNLDKSAVTSWNKVEGRQPTINIFEMLEAEREILKDERVKDQCRQLGITDMSMVYADPWGVGYHEIKGKRLVQALLYARTSPDDNQYAHPLDFNPLYDLNAKKVLDIVVSKRRNSSFERPVIPMANHHFLPEHLGEDRLRKDIKPIEITQPQGVSFSIRDGHQLHWQKWDMHLSFNYREGLVINNLSYRDMDSTVRPIIYRMSLAEMVVPYANPYKPYNHKMAFDVGEYGLGNLTNSLELGCDCVGKIGYLDAVLSDLNGDPWHIPNAICIHEEDTGLLFKHSDYRTGKAHSARSRRLVISHIVTAANYDYGLYYYFYQDGTIQYEVKATGELNTQVLAEDEDAAPYGTIVAPQVDAQHHQHLFSMRIDPMLDGPNNSVAEVDVVASDLPVGHPHNSVGNSFYPVTKVFNTTDEAKTMASVERHRTWKIINESKIHPYAKQPVGFKMMAHPTPPLLPKPGSIVYERAMFASKTLWVTPHNDKQLYPGGFYCYQSEPSENLGLPQWTKETQNVRDTDIVCWLNFGITHIPRVEDFPIMPIETCGIMLKPANFFLCNPGIDIPPSTRQSTKSAYANDATCCRKNNL	1.8	0.11	–
SrAOX3926: amine oxidase derived from Syncephalastrum racemosum, GenBank ID ORZ03926.1, SEQ ID NO: 30 (protein, listed as Syncephalastrum racemosum) MTVSAVIHPLDPLSPEEIRHASAIIRRERSADKTIFIFNSISLREPPKDQVLAHFGWAAGPKPAQIDRQAFVVLIDRPSGLVHEIIVSLTTSSVVSWNRKQGVQPTLHVQEMLEAEEVMLKDERVIEECRKLGIEDMSLVFADTWGVGWHKTKGKRLMQALMYMRTSPDDNQYAHPLDFTPLYDVNEQKVIDVLVAKRRNSKFERPVIPRADHQFLPEHLGEGNLRKDIKPIEIIQPEGVSFQIRGHEIDWQKWNLHIGFNYREGLVISNVSYKDMDGTVRPVFYRVSLAEMVVPYANPYEPYNHKMAFDVGEYGLGNLTNSLELGCDCVGSIFYMDGVCSDLKGDAWVIPNAICIHEEDTGLLFKHTDFRNNKAHSARSRRLVISHIVTAANYDYGLYYYFYQDGTFQYEVKATGELNTHVLAEDENPAPYGTIVAPQIDAQHHQHLFSMRIDPMVDGPTNSVAQVDVVASDLPVGHPDNAVGNAFSPITTIYANTDEAQARANGETSRYWKIINEDKIHPYTREPVGFKLMCPNTPPMLPKPGSIAYERAVFASKTVWVTPYDAEQLFPGGFYCYQSDPADRLGLPEWTKGKKDVKNKDIVLWLTFGLTHIPRVEDFPIMPVETCGFMLKPCNFFLANPGIDIPASDKHSTKSAYAHALTNGANGTGNGSTNGSSCCNKNY	0.2	–	–
LaTDH: large subunit of taurine dehydrogenase from Paracoccus denitrificans, amino acid sequence SEQ ID NO: 1, expressed in E. coli (protein, Paracoccus denitrificans) MQAIEKRAGALPYDPLYDPVTARGLGPRSDYAPTYWIGTAGAPPPDDGPVTGDMDADVVVIGSGYTGLSCALHLAKMHGIKAVVLEANGVAYGCSTRNGGQAQVSSGRLKRSQWIERWGLDVARRLHAEVCEGFDLFRGLIRDHAIDCDPQDGGHYYIAHKASAMPALEKETALLRDTFGYDARMISRDELHETVARDQEAHGAMWEADGVGIHAAKLAFGYLRAARELGARVHVDSPVQGWEYRNGVHHLRTPGGTVRARRVAVATAAYAPRSLHPRLRDRLMPIMSNSIVTRVLTPAELEAVGIRKLSPLTDTRTLRHYYRLLPDNRLQIGSRAAITGRDAANPAHLDALREGMARKFPALRGIALDYSWWGWVDVSHDMMPRITGLPDLPGAFYALGYGGNGVMYSAMAGRRMAQLVAGEAVPDLPIFNNELPHEGWRTPFRRLGQWGLYKFYHYRDERR	–	–	degree of loss of blue color derived from DCIP (dehydrogenase activity), substrate benzylamine [3]: did not react; degree of loss of blue color derived from DCIP (dehydrogenase activity), substrate ethanolamine [3]: did not react; degree of loss of blue color derived from DCIP (dehydrogenase activity), substrate ethanolamine phosphate [3]: also reacted; degree of loss of blue color derived from DCIP (dehydrogenase activity), substrate taurine [3]: reacted most
SrAOX3925: amine oxidase derived from Syncephalastrum racemosum, GenBank ID ORZ03925.1, SEQ ID NO: 25 (protein, listed as Syncephalastrum racemosum) MTIVSPSHPLDPLTPSEIRHVAEIVRATRSPDDKTPRDYIFSSICLKEPHKDKTLAYLQSVSEEAAALMPEREALVILIDRPSGLVHEILVSITDEKVKSAKTLKNVQPTQHVLEMIEAEKIITKDPSVIEECRKLGITDMKNVYADPWTVGYHAQFKSSKRLMQALMYMRTSPDDNQYAHPLDFVPIYDVNAQKVVEILRQETSEASKYDRPTVPLENHQFLPEHIGVENLRKDIKPIEITQPEGVSFTVRGREIEWQNWSMHVGFNYREGVIINNVSYKDKGNVRPLFYRVSVSEMVVPYAHPKEPFNHKMAFDVGEYGLGNLTNSLELGCDCLGSIYYMDGVCNNLDGEPWVIPNAICIHEEDTGLLFKHTDYRTDKAHSARSRRLVISQIVTAANYDYGLYFYFYQDGTFQYEVKATGELNTQVFAEDENPAPYGTAVAPQVVGQHHQHLFMMRIDPMLDGRLNSVAQVDVLPSEYPVGHVENPIGNAFSPITTIYSDTTEAQAHGNLESSRTWKIINESKLHPYTKEPVGYKLVSPNTPPMLPKPGSLVYERAKFATKTIWVTPYDPDQIYPAGFYCSQSPGDDSMGLPAWTKEPQSVRGRDVVVWLTFGLTHIPRVEDFPVMPVETCGWALKACNFFLGNPGIDIPAAQKGTSKRVNGACCA	2.6	0.16	–
